According to US20230340439, “SYNTHETIC MINIATURE CRISPR-CAS (CASMINI) SYSTEM FOR EUKARYOTIC GENOME ENGINEERING” (The Board of Trustees of the Leland Stanford Junior …, published 2023):

Tests used:
dCasMINI-V1-VPR (D143R) = biological target: T1, dCasMINI-V1-VPR (D143R) (UniProt A0A482D308 SEQ:1-529); test: cell_activity; GFP activation; PAM TTTR; conditions: chain copies: 2
T1 chain: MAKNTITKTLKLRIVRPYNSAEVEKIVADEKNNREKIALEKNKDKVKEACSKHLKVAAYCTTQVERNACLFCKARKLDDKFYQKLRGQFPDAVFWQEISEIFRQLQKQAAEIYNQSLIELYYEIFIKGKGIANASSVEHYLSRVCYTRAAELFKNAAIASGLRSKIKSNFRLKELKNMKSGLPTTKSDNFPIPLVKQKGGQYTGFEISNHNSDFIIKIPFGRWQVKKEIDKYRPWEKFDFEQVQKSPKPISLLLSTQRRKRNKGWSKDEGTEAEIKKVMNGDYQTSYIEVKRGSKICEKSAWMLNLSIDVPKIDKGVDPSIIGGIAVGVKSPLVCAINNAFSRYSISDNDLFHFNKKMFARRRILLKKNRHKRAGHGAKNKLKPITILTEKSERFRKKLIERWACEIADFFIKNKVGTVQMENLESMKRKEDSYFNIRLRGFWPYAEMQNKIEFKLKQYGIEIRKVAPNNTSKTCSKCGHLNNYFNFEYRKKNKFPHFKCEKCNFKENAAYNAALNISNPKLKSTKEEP
Method: (§1) Using a doxycycline (Dox)-inducible TRE3G-EGFP HEK293T reporter cell line and a sgRNA targeting the promoter, activation efficiency of dCas14-VPR was measured. Wild-type HEK293T cells (ATCC) and the HEK293T TRE3G-GFP reporter line stably encoding EGFP under a Tet-On promoter (pTRE3G) (Y. Gao et al., Genome Res. 22, (2012): 1760-74) were cultured in DMEM with high glucose, sodium pyruvate and GlutaMAX (Thermo Fisher), additionally supplemented with 10% FBS (Sigma). Cells were grown at 37° C. and 5% CO₂ and maintained at confluency below 80%. All transfections were performed with TransIT-LT1 transfection reagent (Mirus) at a ratio of 3 µL reagent per µg of plasmid. Cells were plated 1 day before at 1×10⁵ cells/mL. For this and other GFP activation assays described in these Examples, 500 ng of dCas constructs and 250 ng sgRNA or crRNA plasmids were transfected to HEK293T TRE3G-GFP cells in 24-well plates. Transfected cells were analyzed 2 days post-transfection for GFP activation. Here, no reporter activation was observed (FIG. 3), implying the natural Cas14 system fails to function in the human genome context.

[1] = biological target: T2, dCasMINI-V3-VPR (D143R/T147R/K330R) (UniProt A0A482D308 SEQ:1-529); test: cell_activity; GFP activation; PAM TTTR
T2 chain: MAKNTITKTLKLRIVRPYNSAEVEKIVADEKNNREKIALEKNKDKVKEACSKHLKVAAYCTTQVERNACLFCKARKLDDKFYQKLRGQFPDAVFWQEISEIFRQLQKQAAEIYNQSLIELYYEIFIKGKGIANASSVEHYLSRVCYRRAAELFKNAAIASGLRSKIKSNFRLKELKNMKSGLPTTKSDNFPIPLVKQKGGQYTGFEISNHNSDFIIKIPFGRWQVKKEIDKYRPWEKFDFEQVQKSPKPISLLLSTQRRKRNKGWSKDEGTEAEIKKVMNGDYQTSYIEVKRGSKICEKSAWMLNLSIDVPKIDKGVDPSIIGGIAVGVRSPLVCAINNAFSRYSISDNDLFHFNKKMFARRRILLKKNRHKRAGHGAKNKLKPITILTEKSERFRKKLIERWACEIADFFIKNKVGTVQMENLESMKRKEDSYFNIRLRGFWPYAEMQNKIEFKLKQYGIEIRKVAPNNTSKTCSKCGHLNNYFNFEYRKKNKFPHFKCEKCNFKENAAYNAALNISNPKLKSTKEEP
Method: as §1

[2] = biological target: T3, dCasMINI-V2-VPR (D143R/T147R) (UniProt A0A482D308 SEQ:1-529); test: cell_activity; GFP activation; PAM TTTR; conditions: chain copies: 2
T3 chain: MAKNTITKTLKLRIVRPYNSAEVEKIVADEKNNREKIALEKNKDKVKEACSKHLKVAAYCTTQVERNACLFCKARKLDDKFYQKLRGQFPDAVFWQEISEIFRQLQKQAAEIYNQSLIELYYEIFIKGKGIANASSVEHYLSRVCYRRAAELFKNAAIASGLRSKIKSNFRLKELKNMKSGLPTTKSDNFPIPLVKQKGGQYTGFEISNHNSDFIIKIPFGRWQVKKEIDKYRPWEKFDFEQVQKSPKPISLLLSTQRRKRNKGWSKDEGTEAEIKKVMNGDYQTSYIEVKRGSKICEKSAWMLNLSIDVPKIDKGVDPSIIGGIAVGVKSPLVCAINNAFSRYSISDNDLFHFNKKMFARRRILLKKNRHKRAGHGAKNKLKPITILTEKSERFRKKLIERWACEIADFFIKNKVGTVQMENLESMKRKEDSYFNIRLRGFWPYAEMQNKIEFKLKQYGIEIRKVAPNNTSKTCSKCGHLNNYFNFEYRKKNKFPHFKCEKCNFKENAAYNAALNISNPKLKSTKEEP
Method: as §1

[3] = biological target: T4, dCas14-VPR (dUn1Cas12f1-VPR) (UniProt A0A482D308 SEQ:1-529); test: cell_activity; GFP activation, 3% GFP+ cells; PAM TTTR; conditions: chain copies: 2
T4 chain: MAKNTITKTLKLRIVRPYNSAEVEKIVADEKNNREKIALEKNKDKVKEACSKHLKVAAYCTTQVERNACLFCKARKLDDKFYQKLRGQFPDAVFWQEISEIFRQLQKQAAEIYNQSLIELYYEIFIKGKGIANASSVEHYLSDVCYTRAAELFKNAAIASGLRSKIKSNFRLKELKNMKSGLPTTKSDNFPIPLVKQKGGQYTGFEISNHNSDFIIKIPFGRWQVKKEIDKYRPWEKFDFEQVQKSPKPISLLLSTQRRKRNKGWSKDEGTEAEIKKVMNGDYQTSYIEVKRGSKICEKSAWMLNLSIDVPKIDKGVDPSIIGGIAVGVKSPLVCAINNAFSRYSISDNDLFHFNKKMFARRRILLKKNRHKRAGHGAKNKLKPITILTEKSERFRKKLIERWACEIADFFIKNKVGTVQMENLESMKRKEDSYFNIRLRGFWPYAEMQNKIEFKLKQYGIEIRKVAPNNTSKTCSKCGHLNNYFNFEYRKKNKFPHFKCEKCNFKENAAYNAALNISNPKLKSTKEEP
Method: as §1

[4] = biological target: T5, dCasMINI-V4-VPR (D143R/T147R/K330R/E528R) (UniProt A0A482D308 SEQ:1-529, D326A,D510A); test: cell_activity; GFP activation; 1.15-fold over V3 in screen; PAM TTTR; conditions: tags: N-terminal SV40 NLS, C-terminal c-Myc NLS, mCherry
T5 sequence: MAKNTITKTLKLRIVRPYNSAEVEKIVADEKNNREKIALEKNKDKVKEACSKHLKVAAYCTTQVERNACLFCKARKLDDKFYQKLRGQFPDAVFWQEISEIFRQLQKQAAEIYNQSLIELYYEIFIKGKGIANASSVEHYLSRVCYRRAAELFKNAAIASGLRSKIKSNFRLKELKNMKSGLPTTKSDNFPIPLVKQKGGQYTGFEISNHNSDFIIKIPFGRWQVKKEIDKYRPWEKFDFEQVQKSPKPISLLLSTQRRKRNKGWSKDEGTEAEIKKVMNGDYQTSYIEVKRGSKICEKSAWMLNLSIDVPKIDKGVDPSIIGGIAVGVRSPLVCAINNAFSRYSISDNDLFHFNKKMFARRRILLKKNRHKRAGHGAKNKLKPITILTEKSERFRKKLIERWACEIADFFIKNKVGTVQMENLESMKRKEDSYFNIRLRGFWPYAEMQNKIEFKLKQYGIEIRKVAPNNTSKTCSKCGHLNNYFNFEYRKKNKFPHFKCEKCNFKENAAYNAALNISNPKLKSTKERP

B1: sgRNA Design 2 (stem-loop truncation) targeting TRE3G ; TRE3G promoter target (ssRNA ; dsDNA)
RNA: GGGCUUCACUGAUAAAGUGGAGAACCGCUUCACCAAAAGCUGUCCCUUAGGGGAUUAGAACUUGAGUGAAGGUGGGCUGCUUGCAUCAGCCUAAUGUCGAGAAGUGCUUUCUUCGGAAAGUAACCCUCGAAACAAAUUCAUUUGAAUGAAGGAAUGCAACCUCCCUAUCAGUGAUAGAGAACG
DNA 1: TTTACTCCCTATCAGTGATAGAGAACGTAT
DNA 2: ATACGTTCTCTATCACTGATAGGGAGTAAA
modifications: [-]
B1 was tested, and the activity (dCasMINI-V1-VPR (D143R)) was > 24 fold over dCas14-VPR, the activity [1] was 1.26 fold over D143R/T147R and the activity [2] was 1.55 fold over best single variant. It also gave an activity [3] of 3.6 fold over non-targeting and an activity [4] of 244 fold activation.
